Square brackets hold non-standard residues; d marks the D form. Ends that are not written are not given here.
T1: mu opioid receptor (rat, UniProt P33535)
T1 chain: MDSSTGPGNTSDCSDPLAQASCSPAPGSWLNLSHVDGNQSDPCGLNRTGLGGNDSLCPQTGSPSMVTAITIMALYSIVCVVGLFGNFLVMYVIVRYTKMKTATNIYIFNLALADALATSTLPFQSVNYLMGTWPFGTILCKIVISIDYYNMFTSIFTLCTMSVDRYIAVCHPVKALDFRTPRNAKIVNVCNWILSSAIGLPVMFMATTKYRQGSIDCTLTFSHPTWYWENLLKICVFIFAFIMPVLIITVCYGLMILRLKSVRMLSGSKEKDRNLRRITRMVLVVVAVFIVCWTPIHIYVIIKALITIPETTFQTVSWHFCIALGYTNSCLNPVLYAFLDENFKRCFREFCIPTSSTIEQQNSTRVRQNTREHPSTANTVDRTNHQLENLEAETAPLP

T2: delta opioid receptor (rat, UniProt P33533)
T2 chain: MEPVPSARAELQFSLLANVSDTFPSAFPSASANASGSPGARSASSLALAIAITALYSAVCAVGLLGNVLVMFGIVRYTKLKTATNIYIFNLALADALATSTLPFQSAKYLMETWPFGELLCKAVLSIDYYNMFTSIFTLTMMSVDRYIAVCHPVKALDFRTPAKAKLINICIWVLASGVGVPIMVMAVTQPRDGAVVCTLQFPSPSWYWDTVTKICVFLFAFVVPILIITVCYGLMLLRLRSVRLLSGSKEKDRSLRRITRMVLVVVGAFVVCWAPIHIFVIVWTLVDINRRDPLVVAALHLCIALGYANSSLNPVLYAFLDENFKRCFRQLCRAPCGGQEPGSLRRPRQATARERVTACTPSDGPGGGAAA


Experiments:
mu opioid receptor = target: T1, mu opioid receptor; experiment: competition, radioligand, 25C
delta opioid receptor = target: T2, delta opioid receptor; experiment: competition, radioligand, 25C

Row | Binder | binding result (mu opioid receptor) | binding result (delta opioid receptor)
1 | YG[dF]C-NH2 (also: rhenium complex) [Tyr-Gly-D-Phe-Cys-NH2] | no binding | no binding
2 | YC[dF]G-NH2 (also: rhenium complex) [Tyr-Cys-D-Phe-Gly-NH2] | no binding | no binding

Source: patent US20060083685 (published 2006)
